In PMC11121168 one finds Km data, which are given here for one substance.

The subject of this data set is CC[C@H](NC(=O)OC(C)(C)C)C(=O)N[C@H](C(=O)N[C@@H](CC(C)C)C(=O)N[C@@H](CCC(N)=O)C(=O)Nc1ccc2c(C)cc(=O)oc2c1)C(C)(C)C. Kind of data set: purified protein, by the assay type. The following applies: pH 7.2; 37.0 °C.

By Km is commonly meant the substrate concentration at which the rate is half of its maximum.

For the substance “C-terminally His-tagged SARS-CoV-2 Mpro (Severe acute respiratory syndrome coronavirus 2)”, the Km was 85.2 ± 5.6 µM.
